Source: the supplement of paper PMC11780869

Tested on: Bacillus subtilis
Assay: cleaved RNA product abundance (RNA/gDNA barcode ratio) relative to median wild-type variant (ratio to wild type); higher = more accumulation of the downstream cleavage product
Settings: experiment (reporter, strain, medium): exp 8a: truncated aprE reporter, strain BJT201 with 2% xylose (RNase J1 expressed); cleavage site: glnRA (positions -5 to +31 mutated)
Summary of the method: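 In LB at 37°C, B. subtilis cultures went from OD600 0.0003 to 0.3. Their chromosomes held barcoded reporter mRNAs, truncated aprE or tetM, with RNase Y cleavage-site windows mutagenized via oligos at a 9% error rate. Cleaved RNA, chosen by gel, was reverse transcribed and barcode-sequenced alongside genomic DNA barcodes with UMI collapsing, giving a per-construct RNA:gDNA ratio scaled to the median construct with the unmutated site. This scaled ratio is termed cleaved product abundance.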

Sequence: CGACATGTCCCGCTTCTTTCATTAATCCGTTAGCAACTGTTTTCCTAAATACATTTACCTTTTAAGAGGAGGAAT
- cleaved RNA product abundance: 0.23

Sequence: CGACATGTCCCGCTTCTTTCATTAATCCGTTAGCAACTGTTTTCCTATAAACATTTACCTTTTAAGAGGAGGAAT
- cleaved RNA product abundance: 0.526

Sequence: CGACATGTCCCGCTTCTTTCATTAATCCGTTAGCAACTGTTTTCCTATAGACATTTACCTTTTAAGAGGAGGAAT
- cleaved RNA product abundance: 0.36

Sequence: CGACATGTCCCGCTTCTTTCATTAATCCGTTAGCAACTGTTTTCCTATATACATATACCTTTTAAGAGGAGGAAT
- cleaved RNA product abundance: 0.353

Sequence: CGACATGTCCCGCTTCTTTCATTAATCCGTTAGCAACTGTTTTCCTATATACATTAACCTTTTAAGAGGAGGAAT
- cleaved RNA product abundance: 0.43

Sequence: CGACATGTCCCGCTTCTTTCATTAATCCGTTAGCAACTGTTTTCCTATATACATTCACCTTTTAAGAGGAGGAAT
- cleaved RNA product abundance: 0.346

Sequence: CGACATGTCCCGCTTCTTTCATTAATCCGTTAGCAACTGTTTTCCTATATACATTTACATTTTAAGAGGAGGAAT
- cleaved RNA product abundance: 0.549

Sequence: CGACATGTCCCGCTTCTTTCATTAATCCGTTAGCAACTGTTTTCCTATATACATTTACCTTTTAAGAGGAGGAAT
- cleaved RNA product abundance: 0.539

Sequence: CGACATGTCCCGCTTCTTTCATTAATCCGTTAGCAACTGTTTTCCTATATACATTTACTTTTTAAGAGGAGGAAT
- cleaved RNA product abundance: 0.31

Sequence: CGACATGTCCCGCTTCTTTCATTAATCCGTTAGCAACTGTTTTCCTATATACATTTATCTTTTAAGAGGAGGAAT
- cleaved RNA product abundance: 0.55

Sequence: CGACATGTCCCGCTTCTTTCATTAATCCGTTAGCAACTGTTTTCCTATATACGTTTACCTTTTAAGAGGAGGAAT
- cleaved RNA product abundance: 0.26

Sequence: CGACATGTCCCGCTTCTTTCATTAATCCGTTAGCAACTGTTTTCCTATATATATTTACCTTTTAAGAGGAGGAAT
- cleaved RNA product abundance: 0.505

Sequence: CGACATGTCCCGCTTCTTTCATTAATCCGTTAGCAACTGTTTTGAAATATACATTTACCTTTTAAGAGGAGGAAT
- cleaved RNA product abundance: 0.462

Sequence: CGACATGTCCCGCTTCTTTCATTAATCCGTTAGCAACTGTTTTGATAAATACATTTACCTTTTAAGAGGAGGAAT
- cleaved RNA product abundance: 0.384

Sequence: CGACATGTCCCGCTTCTTTCATTAATCCGTTAGCAACTGTTTTGATATAAACATTTACCTTTTAAGAGGAGGAAT
- cleaved RNA product abundance: 0.399

Sequence: CGACATGTCCCGCTTCTTTCATTAATCCGTTAGCAACTGTTTTGATATATAAATTTACCTTTTAAGAGGAGGAAT
- cleaved RNA product abundance: 0.397

Sequence: CGACATGTCCCGCTTCTTTCATTAATCCGTTAGCAACTGTTTTGATATATACACTTACCTTTTAAGAGGAGGAAT
- cleaved RNA product abundance: 0.313

Sequence: CGACATGTCCCGCTTCTTTCATTAATCCGTTAGCAACTGTTTTGATATATACATATACCTTTTAAGAGGAGGAAT
- cleaved RNA product abundance: 0.572

Sequence: CGACATGTCCCGCTTCTTTCATTAATCCGTTAGCAACTGTTTTGATATATACATCTACCTTTTAAGAGGAGGAAT
- cleaved RNA product abundance: 0.44

Sequence: CGACATGTCCCGCTTCTTTCATTAATCCGTTAGCAACTGTTTTGATATATACATTAACCTTTTAAGAGGAGGAAT
- cleaved RNA product abundance: 0.832

Sequence: CGACATGTCCCGCTTCTTTCATTAATCCGTTAGCAACTGTTTTGATATATACATTTACATTTTAAGAGGAGGAAT
- cleaved RNA product abundance: 0.372

Sequence: CGACATGTCCCGCTTCTTTCATTAATCCGTTAGCAACTGTTTTGATATATACATTTACCTTTTAAGAGGAGGAAT
- cleaved RNA product abundance: 0.503

Sequence: CGACATGTCCCGCTTCTTTCATTAATCCGTTAGCAACTGTTTTGATATATACATTTATCTTTTAAGAGGAGGAAT
- cleaved RNA product abundance: 0.509

Sequence: CGACATGTCCCGCTTCTTTCATTAATCCGTTAGCAACTGTTTTGATATATACATTTGCCTTTTAAGAGGAGGAAT
- cleaved RNA product abundance: 0.378

Sequence: CGACATGTCCCGCTTCTTTCATTAATCCGTTAGCAACTGTTTTGATATATACATTTTCCTTTTAAGAGGAGGAAT
- cleaved RNA product abundance: 0.376

Sequence: CGACATGTCCCGCTTCTTTCATTAATCCGTTAGCAACTGTTTTGATATATATATTTACCTTTTAAGAGGAGGAAT
- cleaved RNA product abundance: 0.766

Sequence: CGACATGTCCCGCTTCTTTCATTAATCCGTTAGCAACTGTTTTGATATTTACATTTACCTTTTAAGAGGAGGAAT
- cleaved RNA product abundance: 0.18

Sequence: CGACATGTCCCGCTTCTTTCATTAATCCGTTAGCAACTGTTTTGCAATAAACATTTACCTTTTAAGAGGAGGAAT
- cleaved RNA product abundance: 0.232

Sequence: CGACATGTCCCGCTTCTTTCATTAATCCGTTAGCAACTGTTTTGCAATATACATTAACCTTTTAAGAGGAGGAAT
- cleaved RNA product abundance: 0.691

Sequence: CGACATGTCCCGCTTCTTTCATTAATCCGTTAGCAACTGTTTTGCAATATACATTTACCATTTAAGAGGAGGAAT
- cleaved RNA product abundance: 0.562

Sequence: CGACATGTCCCGCTTCTTTCATTAATCCGTTAGCAACTGTTTTGCAATATACATTTACCCTTTAAGAGGAGGAAT
- cleaved RNA product abundance: 0.405

Sequence: CGACATGTCCCGCTTCTTTCATTAATCCGTTAGCAACTGTTTTGCAATATACATTTACCTTTTAAGAGGAGGAAT
- cleaved RNA product abundance: 0.436

Sequence: CGACATGTCCCGCTTCTTTCATTAATCCGTTAGCAACTGTTTTGCAATATACATTTAGCTTTTAAGAGGAGGAAT
- cleaved RNA product abundance: 0.72

Sequence: CGACATGTCCCGCTTCTTTCATTAATCCGTTAGCAACTGTTTTGCAATATACATTTATCTTTTAAGAGGAGGAAT
- cleaved RNA product abundance: 0.505

Sequence: CGACATGTCCCGCTTCTTTCATTAATCCGTTAGCAACTGTTTTGCAATATACATTTCCCTTTTAAGAGGAGGAAT
- cleaved RNA product abundance: 0.589

Sequence: CGACATGTCCCGCTTCTTTCATTAATCCGTTAGCAACTGTTTTGCAATATACCTTTACCTTTTAAGAGGAGGAAT
- cleaved RNA product abundance: 0.29

Sequence: CGACATGTCCCGCTTCTTTCATTAATCCGTTAGCAACTGTTTTGCAATATAGATTTACCTTTTAAGAGGAGGAAT
- cleaved RNA product abundance: 0.599

Sequence: CGACATGTCCCGCTTCTTTCATTAATCCGTTAGCAACTGTTTTGCAATATATATTTACCTTTTAAGAGGAGGAAT
- cleaved RNA product abundance: 0.379

Sequence: CGACATGTCCCGCTTCTTTCATTAATCCGTTAGCAACTGTTTTGCAATATCCATTTACCTTTTAAGAGGAGGAAT
- cleaved RNA product abundance: 0.156

Sequence: CGACATGTCCCGCTTCTTTCATTAATCCGTTAGCAACTGTTTTGCCACGTACATTTACCTTTTAAGAGGAGGAAT
- cleaved RNA product abundance: 0.0527

Sequence: CGACATGTCCCGCTTCTTTCATTAATCCGTTAGCAACTGTTTTGCCAGATACATTTACCTTTTAAGAGGAGGAAT
- cleaved RNA product abundance: 0.286

Sequence: CGACATGTCCCGCTTCTTTCATTAATCCGTTAGCAACTGTTTTGCCATATACACTTACCTTTTAAGAGGAGGAAT
- cleaved RNA product abundance: 0.161

Sequence: CGACATGTCCCGCTTCTTTCATTAATCCGTTAGCAACTGTTTTGCCATATACATATACCTTTTAAGAGGAGGAAT
- cleaved RNA product abundance: 0.198

Sequence: CGACATGTCCCGCTTCTTTCATTAATCCGTTAGCAACTGTTTTGCCATATACATTTAACTTTTAAGAGGAGGAAT
- cleaved RNA product abundance: 0.406

Sequence: CGACATGTCCCGCTTCTTTCATTAATCCGTTAGCAACTGTTTTGCCATATACATTTACATTTTAAGAGGAGGAAT
- cleaved RNA product abundance: 0.355

Sequence: CGACATGTCCCGCTTCTTTCATTAATCCGTTAGCAACTGTTTTGCCATATACATTTACCGTTTAAGAGGAGGAAT
- cleaved RNA product abundance: 0.539

Sequence: CGACATGTCCCGCTTCTTTCATTAATCCGTTAGCAACTGTTTTGCCATATACATTTACCTTTTAAGAGGAGGAAT
- cleaved RNA product abundance: 0.205

Sequence: CGACATGTCCCGCTTCTTTCATTAATCCGTTAGCAACTGTTTTGCCATATACATTTACGTTTTAAGAGGAGGAAT
- cleaved RNA product abundance: 0.6

Sequence: CGACATGTCCCGCTTCTTTCATTAATCCGTTAGCAACTGTTTTGCCATATACGTTTACCTTTTAAGAGGAGGAAT
- cleaved RNA product abundance: 0.0858

Sequence: CGACATGTCCCGCTTCTTTCATTAATCCGTTAGCAACTGTTTTGCGATATACATTAACCTTTTAAGAGGAGGAAT
- cleaved RNA product abundance: 0.781

Sequence: CGACATGTCCCGCTTCTTTCATTAATCCGTTAGCAACTGTTTTGCGATATACATTTACCATTTAAGAGGAGGAAT
- cleaved RNA product abundance: 0.637

Sequence: CGACATGTCCCGCTTCTTTCATTAATCCGTTAGCAACTGTTTTGCGATATACATTTACCTTTTAAGAGGAGGAAT
- cleaved RNA product abundance: 0.406

Sequence: CGACATGTCCCGCTTCTTTCATTAATCCGTTAGCAACTGTTTTGCGATATACATTTACGTTTTAAGAGGAGGAAT
- cleaved RNA product abundance: 0.36

Sequence: CGACATGTCCCGCTTCTTTCATTAATCCGTTAGCAACTGTTTTGCGATATACATTTACTTTTTAAGAGGAGGAAT
- cleaved RNA product abundance: 0.55

Sequence: CGACATGTCCCGCTTCTTTCATTAATCCGTTAGCAACTGTTTTGCGATATACATTTATCTTTTAAGAGGAGGAAT
- cleaved RNA product abundance: 0.552

Sequence: CGACATGTCCCGCTTCTTTCATTAATCCGTTAGCAACTGTTTTGCTAAAGACATTTACCTTTTAAGAGGAGGAAT
- cleaved RNA product abundance: 0.0969

Sequence: CGACATGTCCCGCTTCTTTCATTAATCCGTTAGCAACTGTTTTGCTAAATACATTTAACTTTTAAGAGGAGGAAT
- cleaved RNA product abundance: 0.445

Sequence: CGACATGTCCCGCTTCTTTCATTAATCCGTTAGCAACTGTTTTGCTAAATACATTTACCTTTTAAGAGGAGGAAT
- cleaved RNA product abundance: 0.524

Sequence: CGACATGTCCCGCTTCTTTCATTAATCCGTTAGCAACTGTTTTGCTAAATACATTTATCTTTTAAGAGGAGGAAT
- cleaved RNA product abundance: 0.814

Sequence: CGACATGTCCCGCTTCTTTCATTAATCCGTTAGCAACTGTTTTGCTAAATACATTTGCCTTTTAAGAGGAGGAAT
- cleaved RNA product abundance: 0.22

Sequence: CGACATGTCCCGCTTCTTTCATTAATCCGTTAGCAACTGTTTTGCTAAATACATTTTCCTTTTAAGAGGAGGAAT
- cleaved RNA product abundance: 0.232

Sequence: CGACATGTCCCGCTTCTTTCATTAATCCGTTAGCAACTGTTTTGCTAAATACCTTTACCTTTTAAGAGGAGGAAT
- cleaved RNA product abundance: 0.165

Sequence: CGACATGTCCCGCTTCTTTCATTAATCCGTTAGCAACTGTTTTGCTAAATAGATTTACCTTTTAAGAGGAGGAAT
- cleaved RNA product abundance: 0.884

Sequence: CGACATGTCCCGCTTCTTTCATTAATCCGTTAGCAACTGTTTTGCTAAATTCATTTACCTTTTAAGAGGAGGAAT
- cleaved RNA product abundance: 0.133

Sequence: CGACATGTCCCGCTTCTTTCATTAATCCGTTAGCAACTGTTTTGCTACATACAATTACCTTTTAAGAGGAGGAAT
- cleaved RNA product abundance: 0.348

Sequence: CGACATGTCCCGCTTCTTTCATTAATCCGTTAGCAACTGTTTTGCTACATACACTTACCTTTTAAGAGGAGGAAT
- cleaved RNA product abundance: 0.213
